Experimental data taken from US20220395579A1 (Daiichi Sankyo, published 2022).
Substitutions are numbered along the chain they refer to.

B1: mouse anti-CLDN6 antibody B1 (antibody, V domains shown)
VH: EVQLQQSGPELVKPGASVKISCKTSGYTFTEYTMHWVQQSHGKSLEWIGGVNPNSGDTSYNQKFKGKATLTVDKSSSTAYMELRSLTSEDSAVYYCARPGGYDVGYYAMDYWGQGTSVTVSS
VL: DIQMTQTASSLSASLGDRVTISCRASQDINNYLNWYQQKPDGTVKLLIYFTSRLHSGVPSRFSGSGSGTHYSLTITNLEQEDIATYFCQQGYPLPWTFGGGTKLEIK
notes: Mouse monoclonal antibody purified from the culture supernatant of hybridoma 218B1; a mouse IgG1 was used as the control; also called B1 antibody; 218B1
B2: mouse anti-CLDN6 antibody C7 (antibody, V domains shown)
VH: B1 VH
VL: B1 VL with F50S, N77H
notes: Mouse monoclonal antibody purified from the culture supernatant of hybridoma 218C7; also called C7 antibody; 218C7
B3: humanized anti-CLDN6 antibody H1L3 (antibody, human IgG1, kappa, L234A L235A, V domains shown)
VH: QVQLVQSGAEVKKPGASVKVSCKASGYTFTEYTMHWVRQAPGQGLEWMGGVNPNSGDTSYAQKFQGRVTITADTSTSTAYMELSSLRSEDTAVYYCARPGGYDVGYYAMDYWGQGTLVTVSS
VL: DIQMTQSPSSLSASVGDRVTITCRASQDINNYLNWYQQKPGGAVKLLIYFTSRLHSGVPSRFSGSGSGTDYTLTISSLQPEDFATYYCQQGYPLPWTFGGGTKVEIKR
notes: Heavy chain hH1 with light chain hL3; Human IgG1 LALA constant region and human kappa light chain; also called H1L3 antibody
B4: humanized anti-CLDN6 antibody H1L1 (antibody, human IgG1, kappa, L234A L235A, V domains shown)
VH: B3 VH
VL: B3 VL with G42K, V44P, G100Q
notes: Heavy chain hH1 with light chain hL1; Human IgG1 LALA constant region and human kappa light chain; also called H1L1 antibody
B5: humanized anti-CLDN6 antibody H2L2 (antibody, human IgG1, kappa, L234A L235A, V domains shown)
VH: B3 VH with Q1E, A24T, Q43K, G44S
VL: B3 VL with G42K, D70H, G100Q
notes: Heavy chain hH2 with light chain hL2; Human IgG1 LALA constant region and human kappa light chain; also called H2L2 antibody
B6: humanized anti-CLDN6 antibody H2L4 (antibody, human IgG1, kappa, L234A L235A, V domains shown)
VH: B3 VH with Q1E, A24T, Q43K, G44S
VL: B3 VL with Y92N, P93T
notes: Human IgG1 LALA constant region and human kappa light chain; also called H2L4 antibody
B7: humanized anti-CLDN6 antibody H3L3 (antibody, human IgG1, kappa, L234A L235A, V domains shown)
VH: B3 VH with Q1E, A24T, I70L, A72V, T74K
VL: B3 VL
notes: Heavy chain hH3 with light chain hL3; Human IgG1 LALA constant region and human kappa light chain; also called H3L3 antibody

Legend:
human CLDN4 = target: T1, human CLDN4 (human, UniProt O14493 1-209); test: flow cytometry on 293T cells transiently transfected with human CLDN4
T1 construct: whole, on cells; Transfection was confirmed with an anti-FLAG antibody, so the construct may carry a tag
T1 sequence (looked up): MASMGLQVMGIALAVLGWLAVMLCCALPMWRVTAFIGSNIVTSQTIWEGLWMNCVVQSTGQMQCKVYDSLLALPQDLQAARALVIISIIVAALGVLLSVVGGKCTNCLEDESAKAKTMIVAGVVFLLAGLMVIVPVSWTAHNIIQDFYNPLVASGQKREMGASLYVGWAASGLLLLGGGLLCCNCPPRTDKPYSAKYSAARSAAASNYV

human CLDN9 = target: T2, human CLDN9 (human, UniProt O95484 1-217); test: flow cytometry on 293T cells transiently transfected with human CLDN9
T2 construct: It was expressed on 293T cells from human CLDN9/pCMV6-Entry bought from OriGene; also called claudin-9
T2 sequence: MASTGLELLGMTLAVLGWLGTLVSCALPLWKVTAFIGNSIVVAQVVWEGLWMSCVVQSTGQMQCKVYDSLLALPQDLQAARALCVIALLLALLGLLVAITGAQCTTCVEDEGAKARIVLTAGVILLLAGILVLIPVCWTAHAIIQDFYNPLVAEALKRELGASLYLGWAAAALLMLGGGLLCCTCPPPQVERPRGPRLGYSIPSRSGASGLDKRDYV
Description: (§1) The binding activity of the humanized anti-CLDN6 antibody produced in Example 136 to human CLDN6 and its family molecules, CLDN3, CLDN4, and CLDN9, was evaluated by using a flow cytometry method. […] The cells were washed with Dulbecco's phosphate buffered saline (Sigma-Aldrich Co. LLC) containing 5% fetal bovine serum (Hyclone) (hereinafter, referred to as 5% FBS-containing PBS), and FITC AffiniPureF (ab′)₂ Fragment Goat Anti-Human IgG (H+L) (Jackson ImmunoResearch Laboratories Inc.) 150-fold diluted with 5% FBS-containing PBS was then added thereto, and the cells were suspended and left to stand at 4° C. for 30 minutes. After washing with 5% FBS-containing PBS, detection was carried out by using a flow cytometer (FC500; Beckman Coulter, Inc.). Data analysis was carried out by using FlowJo (Tree Star, Inc.), and mean fluorescence intensity (MFI) of FITC, which indicates the amount of the binding antibody, was calculated. […] In each graph in FIG. 42, the abscissa represents antibody concentrations and the ordinate represents MFI.

human CLDN6 [1] = target: T3, human CLDN6 (human, UniProt P56747 1-220); test: immunoprecipitation from NTERA-2 cell lysate with the antibody, SDS-PAGE, mass spectrometry of the 18 kDa band
T3 construct: In the flow cytometry it was expressed on 293T cells from human CLDN6/pCMV-Entry bought from OriGene; It was also expressed on CHO-K1 cells by cDNA transfection, and the endogenous protein was immunoprecipitated from NTERA-2 cell lysate; also called claudin-6; hCLDN6
T3 sequence: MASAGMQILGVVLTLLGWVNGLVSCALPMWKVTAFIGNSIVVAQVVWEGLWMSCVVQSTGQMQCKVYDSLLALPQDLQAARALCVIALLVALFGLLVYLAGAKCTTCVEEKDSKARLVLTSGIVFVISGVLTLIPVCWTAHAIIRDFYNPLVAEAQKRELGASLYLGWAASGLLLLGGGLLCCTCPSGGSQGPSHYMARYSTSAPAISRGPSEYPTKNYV
Description: 2×10⁷ NTERA-2 cells were collected and washed twice with PBS. The cells were collected by using a cell scraper, and centrifuged at 1500 rpm for 5 minutes. After the supernatant was removed, the cells were resuspended in 2 mL of the lysis buffer, and treated at 4° C. for 30 minutes. The resultant was centrifuged (13000 rpm, 20 minutes, 4° C.) to prepare a cell lysate. Protein G Sepharose/lysis buffer (50% slurry; 180 μL) was added to the cell lysate, and the resultant was rotated at 4° C. for 30 minutes and then centrifuged at 4° C. for 1 hour, and the supernatant was collected. […] The Protein G Sepharose was washed six times with the lysis buffer (1 mL), and then resuspended in 1×SDS sample buffer. After the suspension was treated at 100° C. for 5 minutes, the solution was collected as a sample for SDS-PAGE. SDS-PAGE was carried out in the same manner as in 2-2), and the electrophoresis gel was stained with CBB. The part corresponding to 18 kDa was cut out of the electrophoresis gel, and subjected to mass spectrometry.

human CLDN3 = target: T4, human CLDN3 (human, UniProt O15551 1-220); test: flow cytometry on 293T cells transiently transfected with human CLDN3
T4 construct: whole, on cells; Transfection was confirmed with an anti-FLAG antibody, so the construct may carry a tag
T4 sequence (looked up): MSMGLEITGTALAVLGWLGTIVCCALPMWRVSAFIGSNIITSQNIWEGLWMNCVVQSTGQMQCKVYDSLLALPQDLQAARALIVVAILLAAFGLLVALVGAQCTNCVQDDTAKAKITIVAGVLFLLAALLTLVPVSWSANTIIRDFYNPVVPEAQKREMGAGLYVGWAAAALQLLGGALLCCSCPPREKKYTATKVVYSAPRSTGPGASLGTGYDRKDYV

human CLDN6 [2] = target: T3, human CLDN6; test: FACS on CHO-K1 cells transfected with human claudin-6 cDNA
human CLDN6 [3] = target: T3, human CLDN6; test: flow cytometry on 293T cells transiently transfected with human CLDN6
Description: as §1

Binder	binding result (human CLDN4)	binding result (human CLDN9)	binding result (human CLDN6 [1])	binding result (human CLDN3)	binding result (human CLDN6 [2])	binding result (human CLDN6 [3])
B1	no binding	binds	binds	no binding	–	–
B2	no binding	binds	–	no binding	binds	–
B3	no binding (tested: 100 nM)	binds	–	no binding (tested: 100 nM)	–	binds
B4	no binding (tested: 100 nM)	binds	–	no binding (tested: 100 nM)	–	binds
B5	no binding (tested: 100 nM)	binds	–	no binding (tested: 100 nM)	–	binds
B6	no binding (tested: 100 nM)	binds	–	no binding (tested: 100 nM)	–	binds
B7	no binding (tested: 100 nM)	binds	–	no binding (tested: 100 nM)	–	binds
